What was measured:
MutL WT [1] = target: T1, MutL WT (Escherichia coli, UniProt P23367 1-615); assay: fluorescence anisotropy; 3 mM ATP; FA: 20 mM HEPES pH 7.5, 150 mM NaCl, 5 mM MgCl2, 0.08% Tween 20, 20% glycerol, 2 mM DTT, 5 nM DNA, 25 C; BLI: 25 mM HEPES pH 7.5, 150 mM NaCl, 5 mM MgCl2, 2 mM; conditions: protein: recombinant, (HisTrap purified), chain copies: 2
MutL H270A = MutL H270A (Escherichia coli, UniProt P23367 1-615, H270A); assay: fluorescence anisotropy; AMPPNP (1 mM, Fig 3C); FA: 20 mM HEPES pH 7.5, 150 mM NaCl, 5 mM MgCl2, 0.08% Tween 20, 20% glycerol, 2 mM DTT, 5 nM DNA, 25 C; BLI: 25 mM HEPES pH 7.5, 150 mM NaCl, 5 mM MgCl2, 2 mM; conditions: protein: recombinant; (HisTrap purified); chain copies: 2; label: 5'-FAM on primer S8; 15 bp duplex, 5' overhang 16 nt on template (recessed primer 3' end)
MutL H319A = MutL H319A (Escherichia coli, UniProt P23367 1-615, H319A); assay: as above; conditions: protein: recombinant; (HisTrap purified); chain copies: 2; label: 5'-FAM on primer S8; 15 bp duplex, 5' overhang 16 nt on template (recessed primer 3' end)
MutL H270A+H319A = MutL H270A+H319A (Escherichia coli, UniProt P23367 1-615, H270A;H319A); assay: as above; conditions: protein: recombinant; (HisTrap purified); chain copies: 2; label: 5'-FAM on primer S8; 15 bp duplex, 5' overhang 16 nt on template (recessed primer 3' end)
MutL WT [2] = target: T1, MutL WT; assay: fluorescence anisotropy; 3 mM ATP (Table 2 gives 0.64 uM); FA: 20 mM HEPES pH 7.5, 150 mM NaCl, 5 mM MgCl2, 0.08% Tween 20, 20% glycerol, 2 mM DTT, 5 nM DNA, 25 C; BLI: 25 mM HEPES pH 7.5, 150 mM NaCl, 5 mM MgCl2, 2 mM; conditions: protein: recombinant; (HisTrap purified); chain copies: 2; label: 5'-FAM on primer S8; 15 bp duplex, 5' overhang 16 nt on template (recessed primer 3' end)
MutL WT [3] = target: T1, MutL WT; assay: fluorescence anisotropy; AMPPNP (3 mM; Fig 3C legend 1 mM); FA: 20 mM HEPES pH 7.5, 150 mM NaCl, 5 mM MgCl2, 0.08% Tween 20, 20% glycerol, 2 mM DTT, 5 nM DNA, 25 C; BLI: 25 mM HEPES pH 7.5, 150 mM NaCl, 5 mM MgCl2, 2 mM; conditions: protein: recombinant; (HisTrap purified); chain copies: 2; label: 5'-FAM on primer S8; 15 bp duplex, 5' overhang 16 nt on template (recessed primer 3' end)
MutL WT [4] = target: T1, MutL WT; assay: cryo-EM structure (3.7 A); 3 mM AMPPNP, 5 mM Mg2+; FA: 20 mM HEPES pH 7.5, 150 mM NaCl, 5 mM MgCl2, 0.08% Tween 20, 20% glycerol, 2 mM DTT, 5 nM DNA, 25 C; BLI: 25 mM HEPES pH 7.5, 150 mM NaCl, 5 mM MgCl2, 2 mM; conditions: protein: recombinant; (HisTrap purified); chain copies: 2; 21 bp duplex, 5' overhang 21 nt on template

B1: blunt-ended DNA (dsDNA)
DNA 1: AAGTGTCTGTCGTTTT
DNA 2: AAAACGACAGACACTT
- binding result (MutL WT [1]; label: 3'-FAM on S7): no binding

B2: 3' resected primer/template junction (dsDNA)
DNA 1: AAGTGTCTGTCGTTTTAAGGACGAAGGACTC
DNA 2: GAGTCCTTCGTCCTT
- Kd (MutL H270A): 1.59 ± 0.23 µM
- Kd (MutL H319A): 4.51 ± 1.18 µM
- binding result (MutL H270A+H319A): no binding
- Kd (MutL WT [2]): 0.65 ± 0.32 µM
- Kd (MutL WT [3]): 0.29 ± 0.12 µM

B3: 5' resected primer/template junction (dsDNA)
DNA 1: B2 DNA 1
DNA 2: AAAACGACAGACACTT
- binding result (MutL WT [1]; label: 3'-FAM on primer S7): no binding

B4: cryo-EM 3' resected DNA (dsDNA)
DNA 1: AAACAGGCTTAGGCTGGAGGATCAGCTTAGCTTAGAGTCATC
DNA 2: GATGACTCTAAGCTAAGCTGA
- binding result (MutL WT [4]): binds
